In patent US20120309692A1:
Blank lines part the entries; values can stand above or below the substance they belong to.

Biological target: recombinant human glandular kallikrein 2 (hK2) (human) (UniProt P20151)
Test: cell-based or functional assay

Sequence of SLPI (P03973 26-132 limits assumed): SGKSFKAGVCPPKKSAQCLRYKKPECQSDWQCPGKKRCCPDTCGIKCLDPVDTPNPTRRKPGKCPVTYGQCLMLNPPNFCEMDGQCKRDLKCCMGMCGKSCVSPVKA

hK2 Activity (%) of inhibitor-free control, inhibitor at 5 µM: 0%
Substance: PPACK (peptide)

hK2 Activity (%) of inhibitor-free control, inhibitor at 0.08 µM: 92%
hK2 Activity (%) of inhibitor-free control, inhibitor at 4 µM: 35%
Substance: SLPI (from UniProt P03973 26-132)

hK2 Activity (%) of inhibitor-free control, inhibitor at 100 µM: 33%
hK2 Activity (%) of inhibitor-free control, inhibitor at 500 µM: 10%
Substance: antipain (peptide)

hK2 Activity (%) of inhibitor-free control, inhibitor at 100 µM: 12%
Substance: leupeptin (peptide)
